To fix the notation:
B2: His-MYB75 (natural protein, Arabidopsis thaliana, UniProt Q9FE25 1-248, looked up)
chain: MEGSSKGLRKGAWTTEEDSLLRQCINKYGEGKWHQVPVRAGLNRCRKSCRLRWLNYLKPSIKRGKLSSDEVDLLLRLHRLLGNRWSLIAGRLPGRTANDVKNYWNTHLSKKHEPCCKIKMKKRDITPIPTTPALKNNVYKPRPRSFTVNNDCNHLNAPPKVDVNPPCLGLNINNVCDNSIIYNKDKKKDQLVNNLIDGDNMWLEKFLEESQEVDILVPEATTTEKGDTLAFDVDQLWSLFDGETVKFD

Experiment in all cases: pull-down
One test deals with T1, MBP-MYB75 (Arabidopsis thaliana, UniProt Q9FE25 1-248).
T1 sequence (looked up): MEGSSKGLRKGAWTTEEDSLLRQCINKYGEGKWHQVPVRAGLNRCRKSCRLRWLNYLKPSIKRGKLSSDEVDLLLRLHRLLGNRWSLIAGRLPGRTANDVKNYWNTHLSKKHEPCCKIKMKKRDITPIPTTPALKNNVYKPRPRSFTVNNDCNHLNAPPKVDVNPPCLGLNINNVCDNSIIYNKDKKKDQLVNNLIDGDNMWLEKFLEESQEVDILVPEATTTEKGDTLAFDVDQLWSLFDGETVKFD

The test “His-MYB75” concerns the target B2.
For a further test, the target named is T2, TT8-MBP (Arabidopsis thaliana, UniProt Q9FT81 1-518).
T2 sequence (looked up): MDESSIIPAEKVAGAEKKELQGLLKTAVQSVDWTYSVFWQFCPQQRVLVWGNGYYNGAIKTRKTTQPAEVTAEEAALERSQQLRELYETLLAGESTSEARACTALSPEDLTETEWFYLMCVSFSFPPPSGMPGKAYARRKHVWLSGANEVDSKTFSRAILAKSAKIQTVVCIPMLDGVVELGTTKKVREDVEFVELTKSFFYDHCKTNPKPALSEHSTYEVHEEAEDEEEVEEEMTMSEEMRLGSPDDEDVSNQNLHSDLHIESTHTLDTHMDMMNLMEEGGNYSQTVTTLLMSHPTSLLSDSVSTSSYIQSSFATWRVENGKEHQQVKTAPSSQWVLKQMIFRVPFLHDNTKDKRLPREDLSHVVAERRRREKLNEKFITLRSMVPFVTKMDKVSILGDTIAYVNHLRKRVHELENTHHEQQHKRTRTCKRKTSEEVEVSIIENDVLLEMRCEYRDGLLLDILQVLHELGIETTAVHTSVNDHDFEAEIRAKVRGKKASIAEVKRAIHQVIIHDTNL

For another test, the target named is T3, EGL3-MBP (Arabidopsis thaliana, UniProt Q9CAD0 1-596).
T3 sequence (looked up): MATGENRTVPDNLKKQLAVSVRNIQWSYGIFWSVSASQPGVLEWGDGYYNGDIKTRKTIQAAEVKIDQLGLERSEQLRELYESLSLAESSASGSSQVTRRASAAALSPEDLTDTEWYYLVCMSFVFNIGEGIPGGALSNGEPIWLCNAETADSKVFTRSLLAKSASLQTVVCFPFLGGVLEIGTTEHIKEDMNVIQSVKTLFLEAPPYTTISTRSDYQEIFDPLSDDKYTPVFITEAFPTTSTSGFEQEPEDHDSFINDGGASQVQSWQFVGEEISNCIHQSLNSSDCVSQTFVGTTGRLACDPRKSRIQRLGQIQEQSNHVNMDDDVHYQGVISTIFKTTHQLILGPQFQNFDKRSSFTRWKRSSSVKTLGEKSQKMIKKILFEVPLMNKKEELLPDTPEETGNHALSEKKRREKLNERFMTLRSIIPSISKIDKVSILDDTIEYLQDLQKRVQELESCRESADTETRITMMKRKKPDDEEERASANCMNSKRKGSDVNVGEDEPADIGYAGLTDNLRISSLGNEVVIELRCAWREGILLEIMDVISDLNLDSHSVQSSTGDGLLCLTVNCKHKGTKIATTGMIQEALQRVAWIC

B1: GST-MYB30^N (domain or fragment)
chain: not shown
Turning to B1, the binding result with MBP-MYB75 and in the test with His-MYB75 was “binds” in each case.
Regarding B2, the binding result with TT8-MBP and with EGL3-MBP was “binds” throughout.

Source of the values: PMC10943538 (Plant Communications, 2023).
